Consider two molecules from paper PMC9200344, “The Caenorhabditis elegans TDRD5/7-like protein, LOTR-1, interacts with the helicase ZNFX-1 to balance epigenetic signals in the germline” (PLoS Genetics, 2022).

Assay [1] deals with 3xFLAG::GFP::LOTR-1 with Tudor deletion (sam102) (C. elegans (endogenous in embryos and young adults)). The assay is described as follows: affinity purification with mass spectrometry; anti-FLAG (M2) IP of 3xFLAG::GFP::LOTR-1 (wild type, LOTUS or Tudor deletion) on Protein G magnetic beads from embryo and young adult extracts, 4°C, washes with 300 mM NaCl; quantitative MS against the lotr-1 deletion expressing 3xFLAG::GFP alone.

In assay [2] the target is 3xFLAG::GFP::LOTR-1 with e+mLOTUS deletion (sam113) (C. elegans (endogenous in embryos and young adults)). The assay is described as above.
A further assay addresses T1, 3xFLAG::GFP::ZNFX-1 (C. elegans (endogenous in embryos and …, UniProt E9P860 1-2443)).
T1 construct: ZNFX-1, Z-granule helicase, C. elegans; also called FLAG-tagged ZNFX-1; source: tagged ZNFX-1 expressed in worms, C. elegans embryo and young adult lysate
The assay is described as follows: affinity purification with mass spectrometry; anti-FLAG IP of 3xFLAG::GFP::ZNFX-1 from embryos and adults of lotr-1(xf58) mutants (in-frame deletion that removes most of the LOTUS domain); quantitative MS compared with the wild-type background. The following applies: partners not purified.

T1 sequence (E9P860 whole entry): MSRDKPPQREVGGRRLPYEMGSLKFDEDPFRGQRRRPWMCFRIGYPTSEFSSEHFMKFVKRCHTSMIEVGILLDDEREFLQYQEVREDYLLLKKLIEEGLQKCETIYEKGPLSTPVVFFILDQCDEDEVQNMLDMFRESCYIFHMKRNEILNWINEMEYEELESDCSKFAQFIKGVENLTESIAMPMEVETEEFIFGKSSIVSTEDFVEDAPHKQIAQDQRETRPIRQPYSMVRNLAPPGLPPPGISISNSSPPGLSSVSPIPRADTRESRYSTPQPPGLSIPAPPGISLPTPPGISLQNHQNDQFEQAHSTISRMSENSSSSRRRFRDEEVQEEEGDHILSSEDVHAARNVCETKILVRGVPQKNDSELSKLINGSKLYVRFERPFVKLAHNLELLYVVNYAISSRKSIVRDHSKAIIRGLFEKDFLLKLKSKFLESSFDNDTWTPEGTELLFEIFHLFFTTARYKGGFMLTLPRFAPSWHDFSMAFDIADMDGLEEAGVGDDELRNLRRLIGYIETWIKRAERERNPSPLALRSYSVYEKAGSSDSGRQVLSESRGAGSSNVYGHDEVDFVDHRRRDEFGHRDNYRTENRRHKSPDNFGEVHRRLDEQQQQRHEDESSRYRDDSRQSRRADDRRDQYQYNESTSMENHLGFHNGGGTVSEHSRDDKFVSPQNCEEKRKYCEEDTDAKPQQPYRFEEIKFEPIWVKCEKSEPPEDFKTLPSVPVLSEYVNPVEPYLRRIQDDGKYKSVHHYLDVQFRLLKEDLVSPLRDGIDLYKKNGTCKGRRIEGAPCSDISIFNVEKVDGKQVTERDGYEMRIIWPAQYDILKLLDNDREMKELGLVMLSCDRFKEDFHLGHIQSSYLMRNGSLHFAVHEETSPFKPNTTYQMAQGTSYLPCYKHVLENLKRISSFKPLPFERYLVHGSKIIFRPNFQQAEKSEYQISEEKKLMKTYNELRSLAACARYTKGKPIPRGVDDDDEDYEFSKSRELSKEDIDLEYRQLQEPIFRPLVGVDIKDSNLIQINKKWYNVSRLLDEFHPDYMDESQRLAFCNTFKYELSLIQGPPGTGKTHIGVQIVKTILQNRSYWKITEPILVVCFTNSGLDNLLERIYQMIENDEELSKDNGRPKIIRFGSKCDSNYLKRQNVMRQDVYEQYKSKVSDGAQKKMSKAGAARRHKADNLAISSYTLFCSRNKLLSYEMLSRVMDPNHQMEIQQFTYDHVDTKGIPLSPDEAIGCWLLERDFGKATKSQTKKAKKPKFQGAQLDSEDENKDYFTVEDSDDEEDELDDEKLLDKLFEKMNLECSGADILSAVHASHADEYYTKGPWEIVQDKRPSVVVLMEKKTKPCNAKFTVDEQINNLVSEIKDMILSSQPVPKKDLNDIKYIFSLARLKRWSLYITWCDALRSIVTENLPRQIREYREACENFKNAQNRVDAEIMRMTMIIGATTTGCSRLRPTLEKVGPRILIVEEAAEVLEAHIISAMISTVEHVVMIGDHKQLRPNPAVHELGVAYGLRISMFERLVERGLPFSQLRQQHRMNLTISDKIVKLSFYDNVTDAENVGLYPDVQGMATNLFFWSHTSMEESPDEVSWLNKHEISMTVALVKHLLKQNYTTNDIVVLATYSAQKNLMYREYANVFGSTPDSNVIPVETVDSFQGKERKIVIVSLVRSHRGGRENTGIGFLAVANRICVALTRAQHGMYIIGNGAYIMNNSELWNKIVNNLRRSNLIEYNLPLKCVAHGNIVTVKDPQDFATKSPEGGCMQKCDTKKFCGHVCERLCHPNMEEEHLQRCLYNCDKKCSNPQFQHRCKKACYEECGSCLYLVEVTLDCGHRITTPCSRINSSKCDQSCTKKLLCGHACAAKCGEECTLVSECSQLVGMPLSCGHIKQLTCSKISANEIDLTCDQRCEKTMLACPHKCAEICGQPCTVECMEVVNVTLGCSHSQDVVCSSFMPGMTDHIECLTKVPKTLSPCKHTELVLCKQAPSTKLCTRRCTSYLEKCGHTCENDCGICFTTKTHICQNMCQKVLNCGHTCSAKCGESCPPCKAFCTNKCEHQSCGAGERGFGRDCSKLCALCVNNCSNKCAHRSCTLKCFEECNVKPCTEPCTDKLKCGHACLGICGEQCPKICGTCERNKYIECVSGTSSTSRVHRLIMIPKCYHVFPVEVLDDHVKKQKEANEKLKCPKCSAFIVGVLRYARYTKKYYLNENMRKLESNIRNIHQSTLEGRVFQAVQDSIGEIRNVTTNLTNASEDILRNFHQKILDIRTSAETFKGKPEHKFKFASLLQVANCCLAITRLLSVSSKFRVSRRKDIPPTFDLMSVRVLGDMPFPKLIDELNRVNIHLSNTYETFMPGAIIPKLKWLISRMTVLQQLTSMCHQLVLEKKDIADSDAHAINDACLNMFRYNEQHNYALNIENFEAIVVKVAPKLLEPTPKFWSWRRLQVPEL

As for MEG-3 (natural protein), the percent reduction of association against wild-type LOTR-1 (embryos) in assay [1] turned out to be 90%. Besides, in assay [2], the fold change of association against wild-type LOTR-1 (embryos) was 2 fold.

B1: MIP-2 (natural protein, C. elegans (endogenous in young adults), UniProt P90898 1-666, looked up)
chain: MSEEEGKEKMNKMRKRIERDAYSVLLSFKDGASPKQVEQRMDDTLGYDYCSKYHLAGVYDMAQILIEHPDVRQTYEGKFKIIANEDNQDLVDLISKQSDGPRNKGSSKRGRRSSSSAGYHQRSMFGGELSRSPRYSSCRPRSYASFGKAASKKLFQNFGQPSRPFSVLSSSKASTSSAIQSFGTGNHDSTFGKSSGSNANPTNPPVAPSIQRPLMRPSTASSIPIFILRSGSRSPVKKHVQIKTSSSSSHMPTITEFMNNTKRMMVKELPASVHLSEMTELYEREFGAPVDPLLLFSKSWMLMAKTTFKEFLQVIDGEVSLREKWLADQGTTTKSVLELPSRKVEATTVAQLPISQGFRYQDPNSKPKADLASISKSLDGLTLNARKSKKEASKSDMMPFIPKNHREIVTKRFGNAPSSVKADSIVERVQSTSCIFGRQSVPSVLSISSSSTVVPEKLNEEGLKYDSKELLQLKALKKTDVMLVNVYASLKAFPQMIDARAKALMQQNLEVQRNMASRASLNVVAQVQRPSSSINLQRVRVNPNQCVKKVVPVRTLGQALAEVRRQREQVEQEAFNEQPEPSPSPRLGMGSSSHAASNVSDDGWGAQVVQKVEKSPPKPFTVLLPPMSKGAGVKIRPRSRVVLCHSSASSFPPSLNSDFSPNISQA
notes: MIP-2, LOTUS-domain protein, C. elegans; source: endogenous, C. elegans young adult lysate
For the molecule B1, the “fold change of association in lotr-1(xf58) mutant adults against wild type” value with 3xFLAG::GFP::ZNFX-1 is 2 fold.
